This is an account of results in PMC3514216, “SRC Homology 2 Domain Binding Sites in Insulin, IGF-1 and FGF receptor mediated signaling networks reveal an extensive potential interactome” (Cell Communication and Signaling : CCS, 2012).

Assay [1] deals with p130Cas (Y362) (Homo sapiens) (UniProt P56945). Particulars: cited from earlier work.
Assay [2] addresses FGFR3 (Y760) phosphopeptide STDEpYLDLSAP, Rhodamine B-labelled. As to the kind of experiment: fluorescence polarisation; Rhodamine B-labelled peptide in solution with SH2 domain; Beacon 2000; as previously described [40]. For orientation: In fluorescence polarisation assays a small probe gives low polarisation when free and higher when bound to something large.
The target in assay [3] is p62DOK1 (Y398) phosphopeptide KEEGpYELPYNP, Rhodamine B-labelled. The description is as above.
Assay [4] deals with IRS-1 (Y896) phosphopeptide SPGEpYVNIEFG, Rhodamine B-labelled. Described as above.
Assay [5] has as its target IRS-1 (Y1179) phosphopeptide NGLNpYIDLDLV, Rhodamine B-labelled. The description is as above.
The target in assay [6] is p130Cas (Y362) phosphopeptide AEDVpYDVPPPA, Rhodamine B-labelled. Described as above.
In assay [7] the target is FGFR1 (Y463) phosphopeptide GVSEpYELPEDP, Rhodamine B-labelled. The description is as above.
Assay [8] has as its target IRS-1 (Homo sapiens) (UniProt P35568). Particulars: cited from earlier work.
Assay [9] addresses IRS-1 (Y896) (Homo sapiens) (UniProt P35568). Particulars: cited from earlier work.
For assay [10], the target named is ShcA (Y426) (Homo sapiens) (UniProt P29353). Particulars: cited from earlier work.
ShcA (Y426) (Homo sapiens), sequence (P29353 whole entry, looked up): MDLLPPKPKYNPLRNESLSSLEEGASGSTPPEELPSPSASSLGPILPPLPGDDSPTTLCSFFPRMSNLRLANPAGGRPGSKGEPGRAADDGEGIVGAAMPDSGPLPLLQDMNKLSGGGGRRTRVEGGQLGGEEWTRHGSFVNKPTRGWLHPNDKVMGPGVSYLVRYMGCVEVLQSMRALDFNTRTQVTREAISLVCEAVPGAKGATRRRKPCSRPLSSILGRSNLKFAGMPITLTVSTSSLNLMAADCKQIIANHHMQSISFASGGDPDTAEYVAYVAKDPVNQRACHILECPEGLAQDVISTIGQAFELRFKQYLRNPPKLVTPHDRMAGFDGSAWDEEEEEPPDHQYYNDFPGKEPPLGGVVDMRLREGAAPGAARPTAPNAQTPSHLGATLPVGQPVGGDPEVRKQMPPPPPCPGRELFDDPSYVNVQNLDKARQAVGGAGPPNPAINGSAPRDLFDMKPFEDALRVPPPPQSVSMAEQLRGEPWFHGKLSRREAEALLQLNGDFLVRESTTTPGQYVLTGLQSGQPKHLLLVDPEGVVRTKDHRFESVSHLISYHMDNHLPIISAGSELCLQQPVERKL
Assay [11] has as its target B3AT (Y921) (Homo sapiens) (UniProt P02730). Particulars: cited from earlier work.
Assay [12] concerns the target PDGFRb (Y1021) (Homo sapiens) (UniProt P09619). Particulars: cited from earlier work.
For assay [13], the target named is IRS-1 (Y1179) (Homo sapiens) (UniProt P35568). The following applies: cited from earlier work.
IRS-1 (Y1179) (Homo sapiens), sequence (P35568 whole entry, looked up): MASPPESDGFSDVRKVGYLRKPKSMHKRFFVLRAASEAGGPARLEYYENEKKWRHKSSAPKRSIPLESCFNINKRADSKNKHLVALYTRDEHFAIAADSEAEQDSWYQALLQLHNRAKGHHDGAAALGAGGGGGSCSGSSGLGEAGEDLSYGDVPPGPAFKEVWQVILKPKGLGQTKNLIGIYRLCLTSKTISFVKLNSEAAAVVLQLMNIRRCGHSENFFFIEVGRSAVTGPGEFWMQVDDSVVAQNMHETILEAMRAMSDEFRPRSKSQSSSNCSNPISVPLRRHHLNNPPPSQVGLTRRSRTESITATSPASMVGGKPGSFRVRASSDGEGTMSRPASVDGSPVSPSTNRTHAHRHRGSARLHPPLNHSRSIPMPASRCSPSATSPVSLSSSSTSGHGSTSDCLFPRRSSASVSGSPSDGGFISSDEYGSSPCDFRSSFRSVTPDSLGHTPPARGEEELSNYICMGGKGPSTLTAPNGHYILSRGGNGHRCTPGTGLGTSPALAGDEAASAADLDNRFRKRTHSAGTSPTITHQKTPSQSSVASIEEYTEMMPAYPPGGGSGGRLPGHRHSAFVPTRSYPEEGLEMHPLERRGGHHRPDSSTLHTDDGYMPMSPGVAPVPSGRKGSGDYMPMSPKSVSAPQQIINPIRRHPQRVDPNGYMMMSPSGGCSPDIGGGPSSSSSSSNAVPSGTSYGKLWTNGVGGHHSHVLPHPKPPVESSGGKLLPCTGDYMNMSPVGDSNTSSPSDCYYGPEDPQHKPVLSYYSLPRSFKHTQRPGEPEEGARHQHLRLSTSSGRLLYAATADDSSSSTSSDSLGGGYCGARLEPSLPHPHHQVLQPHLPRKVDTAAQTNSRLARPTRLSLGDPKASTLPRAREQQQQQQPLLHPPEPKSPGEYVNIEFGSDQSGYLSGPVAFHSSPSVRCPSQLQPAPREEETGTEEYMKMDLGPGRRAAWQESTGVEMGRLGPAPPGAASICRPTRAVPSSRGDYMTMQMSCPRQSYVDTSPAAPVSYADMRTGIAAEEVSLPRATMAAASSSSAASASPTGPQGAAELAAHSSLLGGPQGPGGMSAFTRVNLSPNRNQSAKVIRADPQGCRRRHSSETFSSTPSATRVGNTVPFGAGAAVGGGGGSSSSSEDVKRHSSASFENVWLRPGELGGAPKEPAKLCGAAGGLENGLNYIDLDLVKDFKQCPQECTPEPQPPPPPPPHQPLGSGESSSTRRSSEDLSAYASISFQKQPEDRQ
For assay [14], the target named is IRS-1 (Y1012) (Homo sapiens) (UniProt P35568). Particulars: cited from earlier work.
IRS-1 (Y1012) (Homo sapiens), sequence (P35568 whole entry, looked up): as above
In assay [15] the target is CD150 (Y142) (Homo sapiens) (UniProt P20963). The following applies: cited from earlier work.
CD150 (Y142) (Homo sapiens), sequence (P20963 whole entry, looked up): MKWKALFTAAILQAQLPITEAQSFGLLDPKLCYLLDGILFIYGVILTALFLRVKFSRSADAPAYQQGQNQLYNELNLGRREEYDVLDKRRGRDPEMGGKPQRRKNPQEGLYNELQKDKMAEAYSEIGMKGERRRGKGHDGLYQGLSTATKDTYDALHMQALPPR
Assay [16] has as its target p130Cas (Y664) (Homo sapiens) (UniProt P56945). Particulars: cited from earlier work.

“And” between values parts separate entries of the source, which are not always exact repeats. Equal entries are not always repeated. A value given as a limit tells only on which side of the number the result lay.

Grb2 SH2, sequence (P62993 57-155): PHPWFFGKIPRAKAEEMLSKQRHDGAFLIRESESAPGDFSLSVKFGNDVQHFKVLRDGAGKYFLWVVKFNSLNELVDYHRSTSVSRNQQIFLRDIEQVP
p130Cas (Y664) (Homo sapiens), sequence (P56945 whole entry, looked up): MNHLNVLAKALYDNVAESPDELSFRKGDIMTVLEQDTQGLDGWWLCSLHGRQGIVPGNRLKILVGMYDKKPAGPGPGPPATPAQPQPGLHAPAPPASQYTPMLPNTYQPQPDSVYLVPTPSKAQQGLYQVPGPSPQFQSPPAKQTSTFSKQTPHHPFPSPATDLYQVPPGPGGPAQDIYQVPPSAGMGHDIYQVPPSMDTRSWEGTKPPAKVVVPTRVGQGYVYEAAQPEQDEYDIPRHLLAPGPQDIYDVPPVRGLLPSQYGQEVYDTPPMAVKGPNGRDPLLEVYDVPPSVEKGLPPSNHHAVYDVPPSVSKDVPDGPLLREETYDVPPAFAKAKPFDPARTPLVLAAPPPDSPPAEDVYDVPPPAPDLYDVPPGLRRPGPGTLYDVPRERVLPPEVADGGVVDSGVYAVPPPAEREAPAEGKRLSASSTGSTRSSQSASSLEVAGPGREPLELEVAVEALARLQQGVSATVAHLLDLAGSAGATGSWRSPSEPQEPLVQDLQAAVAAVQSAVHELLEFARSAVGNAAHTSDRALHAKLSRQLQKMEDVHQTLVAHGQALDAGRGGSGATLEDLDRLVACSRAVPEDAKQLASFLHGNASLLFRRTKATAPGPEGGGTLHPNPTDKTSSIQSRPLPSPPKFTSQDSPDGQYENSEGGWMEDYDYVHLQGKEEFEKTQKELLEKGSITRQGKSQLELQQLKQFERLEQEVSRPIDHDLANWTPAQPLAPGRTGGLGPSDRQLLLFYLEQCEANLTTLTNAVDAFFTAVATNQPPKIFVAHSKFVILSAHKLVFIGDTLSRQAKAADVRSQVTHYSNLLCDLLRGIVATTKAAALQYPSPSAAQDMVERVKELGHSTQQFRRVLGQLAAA
p130Cas (Y362) (Homo sapiens), sequence (P56945 whole entry, looked up, the tested form may be a part): as the sequence (P56945 whole entry, looked up) above
PDGFRb (Y1021) (Homo sapiens), sequence (P09619 whole entry, looked up): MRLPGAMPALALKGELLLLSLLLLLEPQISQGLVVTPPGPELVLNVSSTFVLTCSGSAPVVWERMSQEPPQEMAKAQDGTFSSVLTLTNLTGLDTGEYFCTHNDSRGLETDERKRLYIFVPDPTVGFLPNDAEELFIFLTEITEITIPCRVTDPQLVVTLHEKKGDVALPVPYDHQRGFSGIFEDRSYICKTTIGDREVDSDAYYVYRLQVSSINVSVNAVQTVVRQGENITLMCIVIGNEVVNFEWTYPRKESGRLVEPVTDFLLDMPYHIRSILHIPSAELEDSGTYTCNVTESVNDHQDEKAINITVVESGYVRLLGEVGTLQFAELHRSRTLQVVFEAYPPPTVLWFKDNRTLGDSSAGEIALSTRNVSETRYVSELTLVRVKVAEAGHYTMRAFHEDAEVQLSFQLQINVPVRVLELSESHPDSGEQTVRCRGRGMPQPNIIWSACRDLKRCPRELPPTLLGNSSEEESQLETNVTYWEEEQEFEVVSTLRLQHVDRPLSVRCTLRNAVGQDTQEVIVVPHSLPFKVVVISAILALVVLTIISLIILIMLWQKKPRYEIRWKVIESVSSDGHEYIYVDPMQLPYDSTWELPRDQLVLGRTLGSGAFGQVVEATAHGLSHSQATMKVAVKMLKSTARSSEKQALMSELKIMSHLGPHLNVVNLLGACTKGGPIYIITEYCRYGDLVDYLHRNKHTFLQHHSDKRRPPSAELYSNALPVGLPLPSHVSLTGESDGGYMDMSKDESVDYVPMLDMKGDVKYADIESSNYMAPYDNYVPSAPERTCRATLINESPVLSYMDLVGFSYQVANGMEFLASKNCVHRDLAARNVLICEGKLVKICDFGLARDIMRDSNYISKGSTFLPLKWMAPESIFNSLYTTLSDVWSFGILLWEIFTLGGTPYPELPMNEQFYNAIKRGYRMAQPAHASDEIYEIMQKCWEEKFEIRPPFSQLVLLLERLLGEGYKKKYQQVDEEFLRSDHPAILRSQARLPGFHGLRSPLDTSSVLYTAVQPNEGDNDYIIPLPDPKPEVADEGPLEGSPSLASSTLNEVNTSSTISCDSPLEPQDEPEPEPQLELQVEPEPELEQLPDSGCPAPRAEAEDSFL
Plcγ-C SH2 (C-terminal), sequence (P19174 668-756): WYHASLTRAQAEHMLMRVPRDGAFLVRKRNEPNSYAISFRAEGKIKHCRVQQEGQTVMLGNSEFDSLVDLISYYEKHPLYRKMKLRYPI
IRS-1 (Y896) (Homo sapiens), sequence (P35568 whole entry, looked up): as the sequence (P35568 whole entry, looked up) above
IRS-1 (Homo sapiens), sequence (P35568 whole entry): as the sequence (P35568 whole entry, looked up) above
Crk SH2, sequence (P46108 10-121): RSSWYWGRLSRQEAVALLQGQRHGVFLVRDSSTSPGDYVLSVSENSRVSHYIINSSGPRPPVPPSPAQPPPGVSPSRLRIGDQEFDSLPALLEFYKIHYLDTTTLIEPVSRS
Shc1 SH2, sequence (P29353 485-582): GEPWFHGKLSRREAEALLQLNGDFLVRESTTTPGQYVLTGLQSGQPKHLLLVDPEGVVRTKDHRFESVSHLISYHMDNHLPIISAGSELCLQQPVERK

What is called Kd is the equilibrium constant for the complex coming apart. As to Crk SH2 (from UniProt P46108), in assay [1], the Kd was 545 nM.

Turning to “GST-PI3K1_C SH2 domain (domain or fragment)”, the Kd is 2140 nM in [2] and 13000 nM in assay [3].

Regarding “GST-PI3K1_N SH2 domain (domain or fragment)”, the Kd in assay [4] amounted to 2680 nM; in [5], 15000 nM; in [3], 1850 nM.

Regarding “GST-Ptpn11_N SH2 domain (domain or fragment)”, the Kd in assay [6] was > 50000 nM; in [4], 2080 nM; in [2], 25000 nM; in assay [3], > 50000 nM.

Consider “GST-Rasa1_C SH2 domain (domain or fragment)”, for which the Kd in assay [7] is > 17000 nM; in assay [2], > 17000 nM; in assay [3] it was 1390 nM.

“GST-Rasa1_N SH2 domain (domain or fragment)” displayed a Kd in assay [3] of 410 nM.

On to Grb2 SH2 (from UniProt P62993), for which the Kd is 35 nM in assay [8]; 35 nM in [9]; 23 nM and 53 nM in [10].

As for Nck1 SH2 (from UniProt P16333), the Kd in assay [11] was 60 nM.

As to “Plcγ-C SH2 (C-terminal) (from UniProt P19174)”, the Kd in [12] was 4100 nM.

Regarding “Ptpn11 tandem SH2 tandem SH2 (from UniProt Q06124)”, the Kd in assay [13] is 3 nM.

“Ptpn11_N SH2 (N-terminal) (from UniProt Q06124)”: the Kd in assay [14] is 110000 nM.

Shc1 SH2 (from UniProt P29353): the Kd in assay [15] was 50000 nM.

In the case of Src SH2 (from UniProt P12931), the Kd in [16] is 35 nM.
